Earlier results in patent US20240024386A1, “MICROBIOME MEDIATED INDUCTION OF IMMUNE TOLERANCE AND RESOLUTION OF INFLAMMATION” (INFINANT HEALTH, INC., priority 2020, published 2024).

System: COVID-19
Details: triple therapy with lopinavir—ritonavir and ribavirin

B1: IFNβ-1b: interferon beta-1b, used in triple therapy with lopinavir—ritonavir and ribavirin (protein, UniProt P01574 22-187, looked up, variant C17S)
Interferon beta: MSYNLLGFLQRSSNFQSQKLLWQLNGRLEYCLKDRMNFDIPEEIKQLQQFQKEDAALTIYEMLQNIFAIFRQDSSSTGWNETIVENLLANVYHQINHLKTVLEEKLEKEDFTRGKLMSSLHLKRYYGRILHYLKAKEYSHCAWTIVRVEILRNFYFINRLTGYLRN
modifications: lacks Met1; non-glycosylated
notes: interferon beta-1b, used in triple therapy with lopinavir—ritonavir and ribavirin
In the case of B1, the “period of viral shedding for COVID-19” value is listed as “shortened”.
